Ends that are not written are not given here.
Target: the molecule itself
Experiment: dynamic light scattering; free peptide without lipid; DLS at 20 °C in CD buffer (10 mM Na-phosphate, 100 mM Na2SO4, pH 7.0); the methods give 20 or 40 µM peptide for the DLS samples

B1: Temporin-La (peptide)
peptide: LLRHVVKILEKYL-NH2
notes: 13 residues; MW = 1622.6 as printed in the methods; also called Tempo-La; TEMPO-LA; source: synthetic peptide (NovoPro Bioscience Inc., Shanghai; purity >= 95%)
binding result: binds
